# Measurements taken from patent US7459544 (GENETICS INSTITUTE, dated 2008).
# B1: human B7-2 immunoglobulin fusion protein (hB7-2Ig, full extracellular domain) (Fc fusion)
# chain: APLKIQAYFNETADLPCQFANSQNQSLSELVVFWQDQENLVLNEVYLGKEKFDSVHSKYMGRTSFDSDSWTLRLHNLQIKDKGLYQCIIHHKKPTGMIRIHQMNSELSVLANFSQPEIVPISNITENVYINLTCSSIHGYPEPKKMSVLLRTKNSTIEYDGIMQKSQDNVTELYDVSISLSVSFPDVTSNMTIFCILETDKTRLLSSPFSIELEDPQPPPD
# modifications: Biotinylated or 125I-labelled in some assays.
# notes: Coated on plates, biotinylated or 125I-labelled depending on the assay; also called human B7.2-Ig; full-length B7-2; not shown: Junction residue Q and the hinge-CH2-CH3 of human IgG1 or IgG4 (hinge Cys to Ser, optionally CH2 mutated)
# Target: Human CTLA4 fusion protein (CTLA4Ig) (human, UniProt P16410 36-161)
# Sequence (P16410 36-161): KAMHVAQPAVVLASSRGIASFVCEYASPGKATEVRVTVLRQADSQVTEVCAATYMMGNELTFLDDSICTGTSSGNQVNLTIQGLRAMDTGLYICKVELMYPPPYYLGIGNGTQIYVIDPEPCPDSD
# Test: solid phase competition on immobilized CTLA4-Ig; reference B7-1Ig
binder,measurement,value
B1,fold lower avidity than B7-1,~2 fold
